# Laboratory results taken from US20220168331A1, “PRR-Activating and MicroRNA-Inhibiting Molecules and Methods of Using Same” (Duke University, priority 2019, published 2022).
# “Also recorded” adds a separate entry of the source.
# B1: RigantmiR-21: nuclease-resistant RNA composed of RIG-I-activating structure ICR4 and a complementary sequence to mature miR-21; SEQ ID NO: 2 (nucleic acid)
# chain: GGAUGCGGUACCUGACAGCAUCUUGAAAUAAGGACUGAUGCUCAACAUCAGUCUGAUAAGCUA
# modifications: nuclease-resistant RNA, modifications not given here
# How the values were obtained:
# [1] = tested on: B16-F0 mouse melanoma cells; assay: IFN-β production (ELISA) by B16-F0 cells; type: cell-based; conditions: for IFN-β production after first and second transfection: 12.5 nM, DharmaFECT, one day after first and second transfection, ELISA
# Method: (§1) B16-F0 and B16-F10 mouse melanoma cells lines are originated from the same parental cell line but they have different metastatic ability. B16-F0 cell line has no or marginal metastatic ability but B16-F10 cell line has potent metastatic ability. B16-F0 and B16-F10 cells (1×10^4) were treated with RIG-I agonist ICR4-liposome complex (0.6 μg/ml). After overnight incubation, cytotoxicity and IFN-β production by the cells were measured using MTT assay and ELISA, respectively. […] Tumor suppressor proteins, such as programmed cell death 4 (PDCD4) and phosphatase and tensin homolog (PTEN), and pre-miR-21 levels in B16-F0 and B16-F10 cells were measured using real-time qPCR. […] It was hypothisized that miR-21 would interfere with antitumor effects of RIG-I agonists in B16-F10 melanoma cells.
# B16-F0 mouse melanoma cells were transfected with ICR4, RigantmiR-21, mutant RigantmiR-21, or anti-miR-21 at 12.5 nM using DharmaFECT (DF). After overnight incubation, the cells were replenished with fresh culture media, followed by another transfection with the same dose of RNAs. One day after the first and second transfection, IFN-β production by these cells were determined using ELSIA.
# (§2) B16-F0 mouse melanoma cells or bone marrow-derived dendritic cells (BM-DCs) were transfected once (x1) or twice (x2) with a complex of polyI:C (pIC) (0.6 μg/ml) and transfection agent jet-PEI. IFN-β production by the cells one day after each transfection was determined using ELISA.
# [2] = tested on: bone marrow-derived dendritic cells (BM-DCs); assay: IFN-β production (ELISA) by BM-DCs after single or repeated pIC/jet-PEI transfection; type: cell-based, mouse; conditions: pIC 0.6 μg/ml with jet-PEI, transfected once or twice, one day after each transfection
# Method: as §2
# [3] = tested on: B16-F10 melanoma-bearing mice; assay: Anticancer response (survival) after single or multiple intratumoral pIC/jet-PEI injections; type: in vivo, mouse; conditions: pIC/jet-PEI complex 25 μg intratumorally once or thrice
# [4] = tested on: PANC-02 mouse pancreatic cancer cell line; assay: PRR tolerance: IFN-β production by pretreated PANC-02 cells after secondary treatment; type: cell-based; conditions: pretreatment at sublethal dose overnight, then pIC/DF complex 0.6 μg/ml; FIG. 8
# Method: (§3) In addition to prior activation of MDA5, prior activation of TLR4, RIG-I, and STING induced self- and cross-tolerance of same and different PRRs.
# (§4) In particular, mouse pancreatic cancer cell line PANC-02 and melanoma cell line B16-F10 were pretreated with dH2O, MDA5 agonist (pIC/DF complex), or TLR4 agonist (HMGB1) in the presence of dimethyl sulfoxide (DMSO) (vehicle control), CH223191 (AHR inhibitor), 1-MT (IDO inhibitor), or L-Kyn (AHR activator). After overnight incubation, the cells were replenished with fresh culture media and treated with pIC/DF complex (0.6 μg/ml). One day after second treatment, IFN-β production was measured using ELISA. (n=3).
# [5] = tested on: B16-F10 melanoma cell line; assay: PRR tolerance: IFN-β production by pretreated B16-F10 cells after secondary treatment; type: cell-based, mouse; conditions: pretreatment at sublethal dose overnight, then pIC/DF complex 0.6 μg/ml; FIG. 8
# Method: as §3, §4
# Mouse BM-DCs = assay: PRR tolerance: IFN-β production by pretreated BM-DCs after secondary treatment; type: cell-based; conditions: pretreatment overnight, then cytoplasmic PRR agonists; FIG. 9A
# Method: as §3
# Mouse BM-DCs were treated with pIC/DF complex (cytoplasmic MDA5), ICR4/DF complex (cytoplasmic RIG-I), 2′3′-cGAMP (cytoplasmic STING), or transfection agent DF alone (FIG. 9A). Mouse macrophage cells were treated with dH2O (control), LPS (surface TLR4), or HMGB1 (surface TLR4), followed by treatment with DMSO (control) or mixture of CH223191 (AHR inhibitor) and 1-MT (IDO inhibitor) (FIG. 9B). After overnight incubation, the cells were replenished with fresh culture media and treated with indicated cytoplasmic PRR agonists. Levels of IFN-β production were measured using ELISA. □ P<0.05.
# [6] = tested on: B16-F0 mouse melanoma cells; assay: Cytotoxicity (MTT assay) in B16-F0 cells; type: cell-based; conditions: two transfections at various concentrations, DharmaFECT, MTT three days after first transfection
# Method: as §1
# B16-F0 mouse melanoma cells were transfected with ICR4, RigantmiR-21, mutant RigantmiR-21, or anti-miR-21 at various concentrations using DharmaFECT (DF). After overnight incubation, the cells were replenished with fresh culture media, followed by another transfection with the same dose of RNAs. Three days after the first transfection, cytotoxicity levels were measured using MTT assay.
# [7] = tested on: B16-F10 mouse melanoma cells; assay: IFN-β production (ELISA) by B16-F10 cells; type: cell-based; conditions: transfected once or twice, 0.6 μg/ml, DharmaFECT, ELISA
# Method: as §1
# (§5) To improve therapeutic effects of RIG-I agonists in B16-F10 cells, we designed and generated a novel RIG-I-activating RNA molecule (named RigantmiR-21) that is composed of a RIG-I-activating RNA structure (ICR4: 5′ppp-containg double stem-loop RNA) and a complementary sequence to mature miR-21. B16-F10 melanoma cells were transfected once or twice with RigantmiR-21, mutant RigantmiR-21, anti-miR-21, or ICR4 (0.6 μg/ml) using liposomal transfection agent DharmaFECT (DF). The expression of miR-21 target genes was determined using qPCR. IFN-β production was determined using ELISA. […] Anti-miR-21, ICR4, and RigantmiR-21 RNAs were complexed with in vivo transfection agent jet-PEI. Jet-PEI alone or RNA-jet-PEI complexes (25 μg) were injected thrice intratumorally into B16-F10 melanoma-bearing immunocompetent mice. (n=6).
# Additionally, conjugation of anti-miR-21 improved the ability of other types of RIG-I agonists, such as ICR2 and ICR2AS^4 (sequences shown in FIG. 6A) to induce IFN-β production by cancer cells.
# miR-21 = assay: Expression of premiR-21 and miR-21 target genes (qPCR) in B16-F10 melanoma cells; type: cell-based, mouse; conditions: 0.6 μg/ml, DharmaFECT
# Method: as §5
# B16-F10 melanoma = assay: Survival of B16-F10 melanoma-bearing immunocompetent mice after intratumoral RNA-jet-PEI injections; type: in vivo, mouse; conditions: RNA-jet-PEI complexes 25 μg injected thrice intratumorally
# Method: as §5
# [8] = tested on: KPC-4839 (mouse pancreatic ductal adenocarcinoma); assay: IFN-β production and cell death in KPC-4839 cells; type: cell-based; conditions: 0.6 μg/ml, DharmaFECT
# Method: (§6) The antitumor effects of RigantmiR-21 are not limited to melanoma cells. KPC-4839 (mouse pancreatic ductal adenocarcinoma), PANC-02 (mouse pancreatic adenocarcinoma) and mouse sarcoma cell line cells were transfected with indicated ICR4, RigantmiR-21, mutant RigantmiR-21, or anti-miR-21 (0.6 μg/ml) using DharmaFECT (DF). After overnight incubation, IFN-β production by these cells was determined using ELSIA. (n=3). As shown in FIGS. 4A-4C, RigantmiR-21 treatments induced cell death and IFN-β production by mouse pancreatic, adenocarcinoma, and sarcoma cells that are also resistant to RIG-I agonist ICR4.
# [9] = tested on: PANC-02 (mouse pancreatic adenocarcinoma); assay: IFN-β production and cell death in PANC-02 cells; type: cell-based; conditions: 0.6 μg/ml, DharmaFECT
# Method: as §6
# [10] = tested on: mouse sarcoma cell line cells; assay: IFN-β production and cell death in mouse sarcoma cell line; type: cell-based; conditions: 0.6 μg/ml, DharmaFECT
# Method: as §6
# [11] = tested on: mouse pancreatic, adenocarcinoma, and sarcoma cells; assay: Antitumor activities in mouse pancreatic cancer and sarcoma cells (overall statements); type: cell-based
# Method: as §6
# Mouse macrophage cells = assay: IFN-β production by macrophages re-treated with PRR agonists with or without 1-MT and CH223191; type: cell-based; conditions: re-treatment with the same agonist in presence of mixture of 1-MT and CH223191; FIG. 10
# Method: Mouse macrophage cells were treated with MDA5 agonists (pIC-HMW and pIC-LMW), RIG-I agonists (ICR4 and RigantmiR-21), and STING agonists (2′3′-cGAMP and c-di-GMP). After overnight incubation, the cells were replenished with fresh culture media and treated with the same agonists in the presence or absence of a mixture of 1-MT and CH223191. (n=3).
# [12] = tested on: 4T1 mouse breast cancer cells, B16-F10 mouse melanoma cells, 403688 mouse sarcoma cells, and WM266.4 human melanoma cells; assay: IFN-β production (ELISA) by different cancer cells after first and second transfection with RIG-I agonists; type: cell-based; conditions: DharmaFECT, one day after first and second transfection; FIG. 11
# Method: 4T1 mouse breast cancer cells, B16-F10 mouse melanoma cells, 403688 mouse sarcoma cells, and WM266.4 human melanoma cells were transfected with indicated RIG-I agonists using liposomal transfection agent DharmaFECT (DF). After overnight incubation, the cells was replenished with fresh culture media, followed by another transfection with the same RIG-I agonists. One day after first and second transfection IFN-β production by these cells were determined using ELSIA.
# 402230 sarcoma = assay: Survival of 402230 sarcoma-bearing immunocompetent mice; type: in vivo, mouse; conditions: RigantmiR-21 1 mg/kg with jetPEI intratumorally once daily for three days, anti-PD-1 intraperitoneally twice at 7-day interval
# Method: Murine sarcoma 402230 cell line was treated single with RigantmiR-21 ([…]) in complex with liposome. IFN-β production 24 h after treatment (FIG. 12A) and cytotoxicity 72 h after treatment (FIG. 12B) were measured using ELISA and MTT assay, respectively. N=3. 402230 sarcoma-bearing immunocompetent mice were injected intratumorally once daily for three days with RigantmiR-21 (1 mg/kg) in complex with in vivo transfection agent jetPEI, N=5. (FIG. 12C). Sarcoma-bearing mice were also injected intraperitoneally twice at 7-day interval with anti-PD-1. jetPEI alone and jetPEI with isotype control antibody were used as control.
molecule,measurement,setting,value
polyinosinic-polycytidylic acid [polyI:C],IFN-β production after retreatment,"[1]; pIC 0.6 μg/ml with jet-PEI, transfected once or twice, one day after each transfection",reduced
same,IFN-β production after retreatment,[2],reduced
same,"anticancer responses (survival), multiple treatments compared to single treatment",[3],did not significantly enhance
same,"IFN-β production after secondary treatment, cells pretreated with the substance versus control",[4],significantly decreased
same,"IFN-β production after secondary treatment, cells pretreated with the substance versus control",[5],significantly decreased
same,"IFN-β production after secondary treatment, cells pretreated with the substance versus control",Mouse BM-DCs,significantly decreased
B1,cytotoxic effects after repeated treatments,[6],gradually augmented; also recorded: significantly increased
same,IFN-β production after first and second transfection,[1],incremental; also recorded: significantly increased
same,IFN-β production after first and second transfection,[1]; listed as RignatmiR-21,gradually increase
same,IFN-β production compared to ICR4 and mutant RigantmiR-21,[7],significantly increased
same,expression of premiR-21,miR-21,inhibited
same,miR-21 target gene (PTEN) expression,miR-21,upregulated
same,survival compared to repeated injections with ICR4 or anti-miR-21,B16-F10 melanoma,significantly improved the survival
same,cell death,[8],induced
same,IFN-β production,"[8]; overnight, ELISA",induced
same,cell death,[9],induced
same,IFN-β production,"[9]; overnight, ELISA",induced
same,cell death,[10],induced
same,IFN-β production,"[10]; overnight, ELISA",induced
same,antitumor activities relative to MDA5 agonist polyI:C,[11]; FIGS. 4A-4C,comparable
same,IFN-β production by mouse pancreatic cancer cells and sarcoma,[11]; figure legend FIGS. 4A-4C,improves
same,IFN-β production with IDO inhibitor and AHR inhibitor co-treatment compared to PRR agonist alone,Mouse macrophage cells,enhanced
same,IFN-β production by different cancer cells,[12],differentially induce
same,"survival, RigantmiR-21 and anti-PD-1 antibody compared to RigantmiR-21 alone",402230 sarcoma,significantly improved survival
same,"survival, RigantmiR-21 and anti-PD-1 antibody compared to RigantmiR-21 alone",402230 sarcoma; listed as RignatmiR-21,synergizes
